Test results from patent US20100158968A1 (PURDUE RESEARCH FOUNDATION, published 2010).
Non-standard residues stand in square brackets, D forms with d. No end group written: not given here.

B1: KALdNRQLGVAA (peptide)
peptide: KAL[dN]RQLGVAA-NH2
modifications: N-terminus assumed
SMILES: CC(C)C[C@H](NC(=O)[C@H](C)NC(=O)[C@@H](N)CCCCN)C(=O)N[C@H](CC(N)=O)C(=O)N[C@@H](CCCNC(=N)N)C(=O)N[C@@H](CCC(N)=O)C(=O)N[C@@H](CC(C)C)C(=O)NCC(=O)N[C@H](C(=O)N[C@@H](C)C(=O)N[C@@H](C)C(N)=O)C(C)C
B2: KALNRdQLGVAA (peptide)
peptide: KALNR[dQ]LGVAA-NH2
modifications: N-terminus assumed
SMILES: CC(C)C[C@H](NC(=O)[C@H](C)NC(=O)[C@@H](N)CCCCN)C(=O)N[C@@H](CC(N)=O)C(=O)N[C@@H](CCCNC(=N)N)C(=O)N[C@H](CCC(N)=O)C(=O)N[C@@H](CC(C)C)C(=O)NCC(=O)N[C@H](C(=O)N[C@@H](C)C(=O)N[C@@H](C)C(N)=O)C(C)C
B3: KALNRQdLGVAA (peptide)
peptide: KALNRQ[dL]GVAA-NH2
modifications: N-terminus assumed
SMILES: CC(C)C[C@H](NC(=O)[C@H](C)NC(=O)[C@@H](N)CCCCN)C(=O)N[C@@H](CC(N)=O)C(=O)N[C@@H](CCCNC(=N)N)C(=O)N[C@@H](CCC(N)=O)C(=O)N[C@H](CC(C)C)C(=O)NCC(=O)N[C@H](C(=O)N[C@@H](C)C(=O)N[C@@H](C)C(N)=O)C(C)C
B4: KALNRQLGdVAA (peptide)
peptide: KALNRQLG[dV]AA-NH2
modifications: N-terminus assumed
SMILES: CC(C)C[C@H](NC(=O)[C@H](C)NC(=O)[C@@H](N)CCCCN)C(=O)N[C@@H](CC(N)=O)C(=O)N[C@@H](CCCNC(=N)N)C(=O)N[C@@H](CCC(N)=O)C(=O)N[C@@H](CC(C)C)C(=O)NCC(=O)N[C@@H](C(=O)N[C@@H](C)C(=O)N[C@@H](C)C(N)=O)C(C)C
B5: KAdLNRQLGVAA (peptide)
peptide: KA[dL]NRQLGVAA-NH2
modifications: N-terminus assumed
SMILES: CC(C)C[C@H](NC(=O)[C@H](CCC(N)=O)NC(=O)[C@H](CCCNC(=N)N)NC(=O)[C@H](CC(N)=O)NC(=O)[C@@H](CC(C)C)NC(=O)[C@H](C)NC(=O)[C@@H](N)CCCCN)C(=O)NCC(=O)N[C@H](C(=O)N[C@@H](C)C(=O)N[C@@H](C)C(N)=O)C(C)C
B6: KALNdRQLGVAA (peptide)
peptide: KALN[dR]QLGVAA-NH2
modifications: N-terminus assumed
SMILES: CC(C)C[C@H](NC(=O)[C@H](C)NC(=O)[C@@H](N)CCCCN)C(=O)N[C@@H](CC(N)=O)C(=O)N[C@H](CCCNC(=N)N)C(=O)N[C@@H](CCC(N)=O)C(=O)N[C@@H](CC(C)C)C(=O)NCC(=O)N[C@H](C(=O)N[C@@H](C)C(=O)N[C@@H](C)C(N)=O)C(C)C

Target: mitogen-activated protein kinase-activated protein kinase 2 (human MK2) (human, UniProt P49137 46-400, limits assumed)
Sequence (P49137 46-400 limits assumed): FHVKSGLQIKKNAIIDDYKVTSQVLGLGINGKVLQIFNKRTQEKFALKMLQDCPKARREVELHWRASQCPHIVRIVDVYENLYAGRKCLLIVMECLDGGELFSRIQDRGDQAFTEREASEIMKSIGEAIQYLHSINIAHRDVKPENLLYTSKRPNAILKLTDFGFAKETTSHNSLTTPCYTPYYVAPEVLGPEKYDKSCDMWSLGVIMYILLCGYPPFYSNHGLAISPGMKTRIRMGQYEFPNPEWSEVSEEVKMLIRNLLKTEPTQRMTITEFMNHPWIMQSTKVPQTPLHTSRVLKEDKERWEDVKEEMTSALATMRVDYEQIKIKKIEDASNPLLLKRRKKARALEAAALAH
Assay: cell-based or functional assay

Compared with B1, B2 is higher in “% change in MK2 reaction velocity vs unsubstituted …, peptide at 100 µM” value (shortened to “% change in MK2 reaction velocity”): -5% for the first, 176% for the second.

First: KALNRQAGVAA
Second: B3
The “% change in MK2 reaction velocity” value of the first is lower: 18% for the first, 257% for the second.

Compared with KAANRQLGVAA, KKKALNRQLGVAA is lower in “% change in MK2 reaction velocity” value: 52% for the first, -9% for the second.

First: B4
Second: KALNRQLGVAA [Alanine-substitution peptide printed as KALNRQLGVAA (Table 1, fourth alanine row)]
The “% change in MK2 reaction velocity” value of the first is lower: 160% for the first, 258% for the second.

Going from WLRRIKAWLRRIKA to KALARQLGVAA, the “% change in MK2 reaction velocity” value rises from -83% to -61%.

Going from WLRRIKA [WLRRIKA (non-functional)] to KALNAQLGVAA, the “% change in MK2 reaction velocity” value falls from 4310% to 258%.

First: B5
Second: KALNRQLGVA
The “% change in MK2 reaction velocity” value of the first is higher: 46% for the first, 0% for the second.

Compared with YGRKKRRQRRR, B6 is higher in “% change in MK2 reaction velocity” value: 44% for the first, 206% for the second.

Going from KALNRQLGAAA to WLRRIKAWLRRIKALNRQLGV, the “% change in MK2 reaction velocity” value falls from 273% to -132%.

In the case of KALNRQLAVAA, the “% change in MK2 reaction velocity” value is reported as -28%.
